Measured values: patent US20100272734A1 (Novartis, published 2010)
One block for each binder: values may come before it.

What was measured:
[1] = biological target: endogenous human ActRIIB on cells (human) (UniProt Q13705); experiment: cell-based or functional assay
mouse TGF-βRI (ALK-5)/Fc = biological target: T1, mouse TGF-βRI (ALK-5)/Fc (mouse, UniProt Q64729 30-125, limits assumed); experiment: specificity ELISA on coated recombinant protein
T1 construct: Bought counter-target
T1 sequence (looked up): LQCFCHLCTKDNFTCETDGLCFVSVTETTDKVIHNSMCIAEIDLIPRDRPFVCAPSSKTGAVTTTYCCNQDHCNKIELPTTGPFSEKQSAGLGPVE
Protocol: (§1) The specificity of anti-ActRIIB Fab antibodies to human ActRIIB and crossreactivity to human ActRIIA and mouse ActRIIB is evaluated in an ELISA setting. Additionally, binding to related receptors (counter-targets: human TGF-βRII/Fc (R&D systems), mouse TGF-βRI (ALK-5)/Fc (R&D systems), human Activin RIB (ALK-4)/Fc (R&D systems)) is determined. For this 5 μg/ml (if not stated otherwise) of the recombinant proteins diluted in PBS are added to a black 96-well flat-bottom MaxiSorp™ plate and incubated over night at 4° C. for coating.
(§2) The next morning, the plates are washed with TBST and blocked with MTBST. After washing the plates several times, 5 μg/ml anti-ActRIIB Fab are added and incubated for 2.5 hrs. Subsequently antigen bound Fabs are detected by incubation with alkaline phosphatase conjugated goat-anti-human IgG Fab-specific, followed by addition of AttoPhos fluorescence substrate.

[2] = biological target: T2, human Activin RIB (ALK-4)/Fc (human, UniProt P36896 24-126); experiment: specificity ELISA on coated recombinant protein
T2 construct: Bought counter-target
T2 sequence (looked up): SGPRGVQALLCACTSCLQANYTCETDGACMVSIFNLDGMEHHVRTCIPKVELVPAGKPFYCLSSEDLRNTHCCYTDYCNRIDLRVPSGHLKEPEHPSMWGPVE
Protocol: as §1, §2

human TGF-βRII/Fc = biological target: T3, human TGF-βRII/Fc (human, UniProt P37173 24-159); experiment: specificity ELISA on coated recombinant protein
T3 construct: Bought counter-target
T3 sequence (P37173 24-159 limits assumed): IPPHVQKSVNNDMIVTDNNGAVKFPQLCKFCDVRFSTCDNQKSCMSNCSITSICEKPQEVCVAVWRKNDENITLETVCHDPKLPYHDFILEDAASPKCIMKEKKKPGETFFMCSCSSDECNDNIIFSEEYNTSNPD
Protocol: as §1, §2

Sequence of endogenous human ActRIIB on cells (human) (Q13705 19-512 E459A limits assumed): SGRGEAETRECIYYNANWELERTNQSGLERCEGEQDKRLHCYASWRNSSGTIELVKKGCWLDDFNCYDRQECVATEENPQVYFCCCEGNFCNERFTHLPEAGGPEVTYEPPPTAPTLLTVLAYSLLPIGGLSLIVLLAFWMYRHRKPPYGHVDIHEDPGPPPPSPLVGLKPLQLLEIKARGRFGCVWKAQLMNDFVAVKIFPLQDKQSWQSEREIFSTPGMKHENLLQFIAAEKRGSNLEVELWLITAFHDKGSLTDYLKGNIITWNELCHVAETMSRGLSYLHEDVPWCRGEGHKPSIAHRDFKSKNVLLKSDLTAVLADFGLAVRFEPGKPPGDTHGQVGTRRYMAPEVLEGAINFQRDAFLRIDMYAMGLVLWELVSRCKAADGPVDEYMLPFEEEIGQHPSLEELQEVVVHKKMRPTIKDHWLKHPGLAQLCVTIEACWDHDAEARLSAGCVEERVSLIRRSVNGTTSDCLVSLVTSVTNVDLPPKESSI

- Emax of ligand-induced inhibition of skeletal muscle differentiation in the presence of MOR08159 (10 µg/ml) [1]: 22.1 % control
- Emax of ligand-induced inhibition of skeletal muscle differentiation in the presence of MOR08213 (10 µg/ml) [1]: 27.1 % control
- Emax of ligand-induced inhibition of skeletal muscle differentiation, no Ab [1]: 23.2 % control
- IC50 of ligand-induced inhibition of skeletal muscle differentiation in the presence of MOR08159 (10 µg/ml) [1]: 0.0133 µg/mL
- IC50 of ligand-induced inhibition of skeletal muscle differentiation in the presence of MOR08213 (10 µg/ml) [1]: 0.012 µg/mL
- IC50 of ligand-induced inhibition of skeletal muscle differentiation, no Ab [1]: 0.007 µg/mL
B1: GDF-11 (ligand, UniProt O95390 299-407, looked up)
chain: NLGLDCDEHSSESRCCRYPLTVDFEAFGWDWIIAPKRYKANYCSGQCEYMFMQKYPHTHLVQQANPRGSAGPCCTPTKMSPINMLYFNDKQQIIYGKIPGMVVDRCGCS

- binding result (mouse TGF-βRI (ALK-5)/Fc): no binding (tested: 5 µg/ml Fab)
- binding result [2]: no binding (tested: 5 µg/ml Fab)
- binding result (human TGF-βRII/Fc): no binding (tested: 5 µg/ml Fab)
B2: MOR07079 Fab (Fab, V domains shown)
VH: QVQLVQSGAEVKKPGASVKVSCKASGYTFTSSYINWVRQAPGQGLEWMGTINPVSGNTSYAQKFQGRVTMTRDTSISTAYMELSSLRSEDTAVYYCARGGWFDYWGQGTLVTVSS
VL: DIALTQPASVSGSPGQSITISCTGTSSDVGSYNYVNWYQQHPGKAPKLMIYGVSKRPSGVSNRFSGSKSGNTASLTISGLQAEDEADYYCQAWTSKMAGVFGGGTKLTVL
notes: Parental HuCAL GOLD Fab (Fab-FH format from pMORPH X9_FH vector); also called MOR7079; Fab-FH

- Emax of ligand-induced inhibition of skeletal muscle differentiation in the presence of MOR08159 (10 µg/ml) [1]: 61.9 % control
- Emax of ligand-induced inhibition of skeletal muscle differentiation in the presence of MOR08213 (10 µg/ml) [1]: 57.2 % control
- Emax of ligand-induced inhibition of skeletal muscle differentiation, no Ab [1]: 37.1 % control
- IC50 of ligand-induced inhibition of skeletal muscle differentiation in the presence of MOR08159 (10 µg/ml) [1]: 0.0347 µg/mL
- IC50 of ligand-induced inhibition of skeletal muscle differentiation in the presence of MOR08213 (10 µg/ml) [1]: 0.0419 µg/mL
- IC50 of ligand-induced inhibition of skeletal muscle differentiation, no Ab [1]: 0.0147 µg/mL
B3: Activin A (ligand, UniProt P08476 311-426, looked up)
chain: GLECDGKVNICCKKQFFVSFKDIGWNDWIIAPSGYHANYCEGECPSHIAGTSGSSLSFHSTVINHYRMRGHSPFANLKSCCVPTKLRPMSMLYYDDGQNIIKKDIQNMIVEECGCS
